{"source": "paper PMC2943039", "target": "PCNA (Proliferating Cell Nuclear Antigen) (UniProt P12004)", "assay": "PCNA-bead pull-down, anti-FEN1 blot", "conditions": "reference: wild type, kinase-treated; sites S187"}
{"substance": "FEN1 (flap endonuclease 1) (from UniProt P39748) S187A, kinase-treated", "values": [{"measurement": "binding against the reference", "result": "stronger"}]}
